Source: PMC3718016

Experiments:
[1] = molecular target: SRPK1(ΔN), SRPK1 without the N-terminus (UniProt Q96SB4)
SRPK1(ΔSα1) = SRPK1(ΔSα1) (UniProt Q96SB4)
[2] = molecular target: SRPK1(ΔS), SRPK1 without the spacer insert domain (UniProt Q96SB4)
SRPK1(ΔNCT) = SRPK1(ΔNCT) (UniProt Q96SB4)
SRPK1(ΔSα2) = SRPK1(ΔSα2) (UniProt Q96SB4)
SRPK1(ΔNNT) = SRPK1(ΔNNT) (UniProt Q96SB4)
SRPK1(ΔSINT) = SRPK1(ΔSINT) (UniProt Q96SB4)

- Km for SRSF1 (KSR), steady-state phosphorylation of SRSF1 [1]: 0.44 µM
- kcat/KSR (steady-state kinetics with maximum viscosity effect) (SRPK1(ΔSα1)): 2.2e+06 M⁻¹ s⁻¹
- Km for SRSF1 (KSR), steady-state phosphorylation of SRSF1 [2]: 0.14 µM
- Km for SRSF1 (KSR), steady-state phosphorylation of SRSF1 (SRPK1(ΔNCT)): 0.41 µM
- kcat/KSR (steady-state kinetics with maximum viscosity effect) (SRPK1(ΔSα2)): 6.9e+06 M⁻¹ s⁻¹
- Km for SRSF1 (KSR), steady-state phosphorylation of SRSF1 (SRPK1(ΔNNT)): 0.038 µM
- kcat/KSR (steady-state kinetics with maximum viscosity effect) (SRPK1(ΔSINT)): 5.3e+06 M⁻¹ s⁻¹
Substance: SR protein splicing factor 1 (SRSF1) (from UniProt Q07955 1-248) (natural protein)
